Test results as given in patent publication US6096512A, “Cloned DNA encoding a UDP-GalNAc: Polypeptide, N-acetylgalactosaminyltransferase” (Pharmacia & Upjohn Company, priority 1997, dated 2000).
“Also recorded” adds a separate entry of the source.

T1: bovine colostrum GalNAc-transferase (Bos taurus, UniProt Q07537)
T1 sequence (Q07537 41-559): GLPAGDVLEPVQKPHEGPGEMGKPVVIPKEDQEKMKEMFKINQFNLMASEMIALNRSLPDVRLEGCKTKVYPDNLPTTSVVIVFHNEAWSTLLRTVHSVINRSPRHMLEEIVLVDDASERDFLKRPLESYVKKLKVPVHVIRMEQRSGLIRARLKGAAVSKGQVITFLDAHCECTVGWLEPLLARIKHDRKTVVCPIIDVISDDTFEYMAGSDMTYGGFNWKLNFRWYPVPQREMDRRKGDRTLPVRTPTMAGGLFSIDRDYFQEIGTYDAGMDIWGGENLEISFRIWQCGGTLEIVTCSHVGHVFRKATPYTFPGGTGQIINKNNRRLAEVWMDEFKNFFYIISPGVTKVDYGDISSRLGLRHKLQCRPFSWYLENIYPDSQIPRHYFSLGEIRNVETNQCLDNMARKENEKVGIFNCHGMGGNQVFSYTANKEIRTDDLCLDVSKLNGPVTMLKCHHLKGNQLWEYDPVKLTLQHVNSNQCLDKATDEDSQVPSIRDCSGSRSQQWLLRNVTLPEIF

B1: Subtilisin: bacterial protein produced by a microbial system incapable of O-linked oligosaccharide biosynthesis (protein, UniProt P00782 108-382, looked up)
Subtilisin BPN': AQSVPYGVSQIKAPALHSQGYTGSNVKVAVIDSGIDSSHPDLKVAGGASMVPSETNPFQDNNSHGTHVAGTVAALNNSIGVLGVAPSASLYAVKVLGADGSGQYSWIINGIEWAIANNMDVINMSLGGPSGSAALKAAVDKAVASGVVVVAAAGNEGTSGSSSTVGYPGKYPSVIAVGAVDSSNQRASFSSVGPELDVMAPGVSIQSTLPGNKYGAYNGTSMASPHVAGAAALILSKHPNWTNTQVRSSLENTTTKLGDSFYYGKGLINVQAAAQ
B2: Myelin basic protein: efficient acceptor for GalNAc-transferase, included as a positive control (protein, UniProt P02686 1-304, looked up)
Myelin basic protein: MGNHAGKRELNAEKASTNSETNRGESEKKRNLGELSRTTSEDNEVFGEADANQNNGTSSQDTAVTDSKRTADPKNAWQDAHPADPGSRPHLIRLFSRDAPGREDNTFKDRPSESDELQTIQEDSAATSESLDVMASQKRPSQRHGSKYLATASTMDHARHGFLPRHRDTGILDSIGRFFGGDRGAPKRGSGKDSHHPARTAHYGSLPQKSHGRTQDENPVVHFFKNIVTPRTPPPSQGKGRGLSLSRFSWGAEGQRPGFGYGGRASDYKSAHKGFKGVDAQGTLSKIFKLGGRDSRSGSPMARR
B3: Bovine rhodanese: cytoplasmic protein containing three strong predicted glycosylation sites (protein)
chain: VHQVLYRALVSTKWLAESVRAGKVGPGLRVLDASWYSPGTREARKEYLERHVPGASFFDIEECRDKASPYEVMLPSEAGFADYVGSLGISNDTHVVVYDGDDLGSFYAPRVWWMFRVFGHRTVSVLNGGFRNWLKEGHPVTSEPSRPEPAIFKATLNRSLLKTYEQVLENLESKRFQLVDSRAQGRYLGTQPEPDAVGLDSGHIRGSVNMPFMNFLTEDGFEKSPEELRAMFEAKKVDLTKPLIATCRKGVTACHIALAAYLCGKPDVAIYDGSWFEWFHRAPPETWVSQGKGGKA
B4: GalNAcT 2-1.A: baculovirus isolate of the full length GalNAc-transferase gene (pAC373-GalNAcT) expressed in Sf9 cells (protein)
chain: MRKFAYCKVVLATSLIWVLLDMFLLLYFSECNKCDEKKERGLPAGDVLEPVQKPHEGPGEMGKPVVIPKEDQEKMKEMFKINQFNLMASEMIALNRSLPDVRLEGCKTKVYPDNLPTTSVVIVFHNEAWSTLLRTVHSVINRSPRHMLEEIVLVDDASERDFLKRPLESYVKKLKVPVHVIRMEQRSGLIRARLKGAAVSKGQVITFLDAHCECTVGWLEPLLARIKHDRKTVVCPIIDVISDDTFEYMAGSDMTYGGFNWKLNFRWYPVPQREMDRRKGDRTLPVRTPTMAGGLFSIDRDYFQEIGTYDAGMDIWGGENLEISFRIWQCGGTLEIVTCSHVGHVFRKATPYTFPGGTGQIINKNNRRLAEVWMDEFKNFFYIISPGVTKVDYGDISSRLGLRHKLQCRPFSWYLENIYPDSQIPRHYFSLGEIRNVETNQCLDNMARKENEKVGIFNCHGMGGNQVFSYTANKEIRTDDLCLDVSKLNGPVTMLKCHHLKGNQLWEYDPVKLTLQHVNSNQCLDKATDEDSQVPSIRDCSGSRSQQWLLRNVTLPEIF
B5: GalNAcT 2-1.B: baculovirus isolate of the full length GalNAc-transferase gene (pAC373-GalNAcT) expressed in Sf9 cells (protein)
chain: B4 chain
B6: GalNAcT-Mel: recombinant baculovirus that expresses a secreted form of GalNAc-transferase with honeybee melittin signal peptide (protein)
chain: DPSPALEPVQKPHEGPGEMGKPVVIPKEDQEKMKEMFKINQFNLMASEMIALNRSLPDVRLEGCKTKVYPDNLPTTSVVIVFHNEAWSTLLRTVHSVINRSPRHMLEEIVLVDDASERDFLKRPLESYVKKLKVPVHVIRMEQRSGLIRARLKGAAVSKGQVITFLDAHCECTVGWLEPLLARIKHDRKTVVCPIIDVISDDTFEYMAGSDMTYGGFNWKLNFRWYPVPQREMDRRKGDRTLPVRTPTMAGGLFSIDRDYFQEIGTYDAGMDIWGGENLEISFRIWQCGGTLEIVTCSHVGHVFRKATPYTFPGGTGQIINKNNRRLAEVWMDEFKNFFYIISPGVTKVDYGDISSRLGLRHKLQCRPFSWYLENIYPDSQIPRHYFSLGEIRNVETNQCLDNMARKENEKVGIFNCHGMGGNQVFSYTANKEIRTDDLCLDVSKLNGPVTMLKCHHLKGNQLWEYDPVKLTLQHVNSNQCLDKATDEDSQVPSIRDCSGSRSQQWLLRNVTLPEIF

Tests used:
[1] = target: T1, bovine colostrum GalNAc-transferase; test: Transfer of N-acetylgalactosamine to protein acceptors by bovine colostrum GalNAc-transferase; assay type: biochemical; settings: for Product formed, native acceptor / Product formed, reduced and carboxymethylated acceptor: acceptor 65 μM, enzyme approximately 65 mU/ml, 60 minutes; for Product formed, reduced and carboxymethylated acceptor: myelin basic protein was not reduced and carboxymethylated; for acceptor activity in words: native or reduced and carboxymethylated
Description: (§1) The standard assay for UDP-GalNAc:polypeptide, N-acetylgalactosaminyltransferase activity during purification contained the following components in a final volume of 80 μl: 50 mM Imidazole pH 7.2, 10 mM MnCl2, 0.5% Triton X-100, 15 μM UDP-GalNAc, UDP[1-^3 H-] GalNAc (27,000 cpm/assay), 0.15 mg/ml apomucin and varying amounts of enzyme (see individual experiments). The reaction mixture is incubated at 37° C. for 5-10 minutes (see individual experiments) and the reaction product is TCA precipitated and radioactivity measured as described. Assays for activity in lysates from Spodoptera frugiperda cell line 9 (hereinafter referred to as Sf9 cells) are carried out as described by Thomsen et al., (1990).
The above conclusions and the predictions of the specificity algorithm are validated experimentally by studying the ability of bovine colostrum GalNAc-transferase to transfer N-acetylgalactosamine to a variety of acceptors, both native proteins and synthetic acceptor peptides. The transfer of N-acetylgalactosamine to protein acceptors is assayed as described by Elhammer and Kornfeld, 1986, with minor modifications. The concentration of UDP-GalNAc is saturating in all assays; a Km of 8 μM is reported for bovine colostrum GalNAc-transferase (Elhammer and Kornfeld, 1986).
The transfer of N-acetylgalactosamine to protein acceptors was assayed
under standard conditions (see Material and Methods). The acceptor
concentration was 65 μM, the enzyme concentration approximately
65 mU/ml and assay time was 60 minutes. The transfer to both native and
reduced-carboxymethylated acceptors was assayed.

[2] = target: T1, bovine colostrum GalNAc-transferase; settings: Cruz and Moscarello, 1983; cited from earlier work
[3] = test system: GalNAc-transferase activity in Sf9 cells; test: Expression of baculovirus isolates of the GalNAc-transferase in Sf9 cells, GalNAcT activity; assay type: cell-based, Spodoptera frugiperda; settings: for Specific activity: Sf9 cell lysates, 48 hours post infection; for Relative rate: relative to uninfected cells
Description: as §1
The putative GalNAcT coding region, pCR1000-91B, is digested with SstII and HindIII (both enzymes cut only in pCR1000 sequences that flank the insert; FIG. 2C) and these sites are blunted using T4 DNA polymerase so that it can be cloned into a baculovirus expression vector. BamHI linkers are then ligated onto the blunted ends and the resulting sample is ligated into the BamHI site of the baculovirus expression vector pAC373 (Summers and Smith, 1986). The resulting isolates are screened for proper orientation of the GalNAcT open reading frame with respect to the baculovirus polyhedron promoter, to yield pAC373-GalNAcT. Cotransfection of Sf9 cells with pAC373-GaINAcT and linearized baculovirus DNA from PharMingen's baculoGold transfection kit is performed using calcium phosphate precipitation (Summers & Smith, 1986). The baculovirus DNA provided in the PharMingen transfection kit contains a lethal mutation that can be corrected by homologous recombination with sequences contained in the pAC373 vector. Therefore, following transfection, only recombinant viruses will grow on Sf9 cells. Transfections are done in duplicate and the resulting virus samples are referred to as GalNAcT 2-1A and GaINAcT 2-1B. Cells are harvested 48 hours post infection and lysed in a detergent containing buffer. Following sedimentation of undissolved material, the cleared lysates are assayed for GalNAcT activity. Lysates from uninfected cells or from cells infected with either a baculovirus containing an unrelated gene, CMV-POL (human cytomegalovirus DNA polymerase gene), or two separate baculovirus isolates of the GaINAcT gene, GalNAcT 2-1A and GaINAcT 2-1B, are assayed.

[4] = test system: GalNAc-transferase activity in Sf9 cells; test: Expression of baculovirus isolates of soluble GalNAc-transferase in Sf9 cells, total activity; assay type: cell-based, Spodoptera frugiperda; settings: for Total activity, cell lysate / Total activity, culture medium: 65 hours post infection; for Total activity, cell lysate: 1X10^6 cells; for Total activity, culture medium: culture medium volume 5 ml
Description: GalNAcTs was routinely expressed in one liter batches. Approximately 1×10^9 cells in one liter Grace's serum-free insect medium (Insect Express) were infected with 5 pfu/cell of GalNAcTs-Mel. The infected cells were cultured in shaker flasks for 65 hours before harvest.
^a 1 unit equals one mole Nacetylgalactosamine transferred to apomuci
per minute, under assay conditions.
Cells (1X10^6) were infected with recombinant virus containing GalNAcTs-Mel (5 pfu/cell). The cells were harvestd 65 hours post infrction, lysed in a detergent containing buffer and the GalNac-transferase activity was determined in the cell lysates and the corresponding culture media; lysate and culture medium from uninfected cells were assayed as control. The numbers have been adjusted for differences in protein content in the cell lysates; the volume of the culture media was 5 ml.

Row | Molecule | Product formed, native acceptor [1] [nmol/min/mg] | Product formed, reduced and carboxymethylated acceptor [1] [nmol/min/mg] | Specific activity [3] [Units/mg protein] | Relative rate [3] | Total activity, cell lysate [4] [U] | Total activity, culture medium [4] [U] | further results
1 | B1 | < 0.1 | 0.6 | – | – | – | – | transfer rate slower than to myelin basic protein ([1]; denatured subtilisin vs myelin basic protein): 35 times; acceptor activity in words [1]: neither of them reacts unless reduced and carboxymethylated; also recorded: neither subtilisin nor rhodanese showed any acceptor activity without prior reduction and carboxymethylation
2 | B2 | 22.2 | 21.3 | – | – | – | – | N-acetylgalactosamines per molecule [2]: 1.2 to 1.5 N-acetylgalactosamines per molecule
3 | B3 | < 0.1 | 3.3 | – | – | – | – | acceptor activity in words ([1]; listed as bovine rhodanese): neither of them reacts unless reduced and carboxymethylated; acceptor activity in words ([1]; listed as rhodanese): neither subtilisin nor rhodanese showed any acceptor activity without prior reduction and carboxymethylation
4 | B4 | – | – | 13.9 | 87 | 16.22 | 1.61 | –
5 | B5 | – | – | 11.9 | 74 | – | – | –
6 | B6 | – | – | – | – | 32.15 | 57.80 | portion of total enzymatic activity retained inside the cells [4]: 36%; activity in medium relative to cells expressing the full length molecule ([4]; culture medium): more than 35 times; increase in GalNAc-transferase activity in the culture medium ([4]; vs uninfected cells): 130 fold
